# Test results reported in patent publication US6423539B1, “Adjuvant treatment by in vivo activation of dendritic cells” (The Board of Trustees of the Leland Stanford Junior …, priority 2000, dated 2002).
# B1: FL: Flt-3 ligand, growth factor that stimulates proliferation of hematopoietic progenitor cells; DC mobilization agent (protein, UniProt P49771 27-235, looked up)
# Fms-related tyrosine kinase 3 …: TQDCSFQHSPISSDFAVKIRELSDYLLQDYPVTVASNLQDEELCGGLWRLVLAQRWMERLKTVAGSKMQGLLERVNTEIHFVTKCAFQPPPSCLRFVQTNISRLLQETSEQLVALKPWITRQNFSRCLELQCQPDSSTLPPPWSPRPLEATAPTAPQPPLLLLLLLPVGLLLLAAAWCLHWQRTRRRTPRPGEQVPPVPSPQDLLLVEH
# Assays:
# circulating blood DC = assay: Clinical study: expansion and phenotype of circulating blood DC after Flt3L administration; format: in vivo, human
# Experimental: Clinical studies were also performed to determine the effect of the activation methods in human patients. It was shown that administration of FL to patients with advanced cancer mobilizes DC precursors into the blood, resulting in an increase of circulating DC of 20 fold on average.
# An expansion of circulating blood DC was found following Flt3L administration. PBMC from patients with advanced cancer were assessed either before or following 10 days of Flt3L administration. DC were characterized phenotypically by expression of HLA DR without expression of lineage markers (CD3, 14, 19, 56).
# DC were gated on their expression of HLA DR and lack of lineage markers CD3, 14, 19, 56. Flt3L expanded DC express intermediate levels of CD4 and CD54 more homogeneously by comparison with unmobilized DC. Flt3L expanded DC, however, lack surface expression of CD86 and CD40 compared with unmobilized DC. Results are from one patient and are representative of three patients studied.
# circulating DC = conditions: administration to mice in vivo; cited from earlier work
molecule,measurement,setting,value
B1,phenotype of expanded human DC,"circulating blood DC; gated HLA DR positive, lineage negative, one patient, representative of three",immature phenotype
same,change in circulating blood DC precursors by flow cytometry,"circulating blood DC; patients with advanced cancer, before vs. after 10 days of Flt3L",significant increase
same,increase of circulating DC,"circulating blood DC; patients with advanced cancer, on average",20 fold
same,increase in number of circulating DC,circulating DC,10-30 fold
